This is an account of results in US20260184814A1 (HUMABS BIOMED, published 2026).

Sequences and labels used below:
B1: FNI9-v8.1 (antibody, V domains shown)
VH: QVHLVQSGAEVKEPGSSVTVSCKASGGTFNNQAISWVRQAPGQGLEWMGGIFPISGTPTSAQRFQGRVTFTADESTTTVYMDLSSLRSDDTAVYYCARAGSDYFNRDLGWENYYFASWGQGTLVTVSS
VL: EIVMTQSPATLSLSSGERATLSCRASRSVSSNLAWYQQKPGQAPRLLIYDASTRATGFSARFAGSGSGTEFTLTISSLQSEDSAIYYCQQYNNWPPWTFGQGTKVEIK
B2: v12.7 (antibody, V domains shown)
VH: QVHLVQSGAEVKEPGSSVTVSCKASGGSFNNQAISWVRQAPGQGLEWMGGIFPISGTANYAQRFQGRVTITADESTTTVYMDLSSLRSDDTAVYYCARAGSDYFNRDLGWENYYFASWGQGTLVTVSS
VL: EIVMTQSPATLSLSSGERATLSCRASRSVSSNLAWYQQKPGQAPRLLIYDASTRATGFSARFAGSGSGTEFTLTISSLQSEDSAIYYCQQYNIWPPWTFGQGTKVEIK
B3: v6.1 (antibody, V domains shown)
VH: QVHLVQSGAEVKEPGSSVTVSCKASGGSFNNQAISWVRQAPGQGLEWMGGIFPISGTPTSAQRFQGRVTFTADESTTTVYMDLSSLRSDDTAVYYCARAGSEYFNRDLGWENYYFASWGQGTLVTVSS
VL: EIVMTQSPATLSLSSGERATLSCRASRSVSSNLAWYQQKPGQAPRLLIYDASTRATGFSARFAGSGSGTEFTLTISSLQSEDSAIYYCQQYNNWPPWTFGQGTKVEIK
B4: v5.7 (antibody, V domains shown)
VH: QVHLVQSGAEVKEPGSSVTVSCKASGGSFNKQAISWVRQAPGQGLEWMGGIFPISGTPTSAQRFQGRVTFTADESTTTVYMDLSSLRSDDTAVYYCARAGSDYFNRDLGWENYYFASWGQGTLVTVSS
VL: EIVMTQSPATLSLSSGERATLSCRASRSVSSNLAWYQQKPGQAPRLLIYDASTRATGFSARFAGSGSGTEFTLTISSLQSEDSAIYYCQQYNIWPPWTFGQGTKVEIK
B5: v11.1 (antibody, V domains shown)
VH: QVHLVQSGAEVKEPGSSVTVSCKASGGSFNNQAISWVRQAPGQGLEWMGGIFPISGTATYAQRFQGRVTITADESTTTVYMDLSSLRSDDTAVYYCARAGSDYFNRDLGWENYYFASWGQGTLVTVSS
VL: EIVMTQSPATLSLSSGERATLSCRASRSVSSNLAWYQQKPGQAPRLLIYDASTRATGFSARFAGSGSGTEFTLTISSLQSEDSAIYYCQQYNNWPPWTFGQGTKVEIK
B6: v9.7 (antibody, V domains shown)
VH: QVHLVQSGAEVKEPGSSVTVSCKASGGSFNNQAISWVRQAPGQGLEWMGGIFPISGTATSAQRFQGRVTITADESTTTVYMDLSSLRSDDTAVYYCARAGSDYFNRDLGWENYYFASWGQGTLVTVSS
VL: EIVMTQSPATLSLSSGERATLSCRASRSVSSNLAWYQQKPGQAPRLLIYDASTRATGFSARFAGSGSGTEFTLTISSLQSEDSAIYYCQQYNIWPPWTFGQGTKVEIK
B7: v4.7 (antibody, V domains shown)
VH: QVHLVQSGAEVKEPGSSVTVSCKASGGSFSNQAISWVRQAPGQGLEWMGGIFPISGTPTSAQRFQGRVTFTADESTTTVYMDLSSLRSDDTAVYYCARAGSDYFNRDLGWENYYFASWGQGTLVTVSS
VL: EIVMTQSPATLSLSSGERATLSCRASRSVSSNLAWYQQKPGQAPRLLIYDASTRATGFSARFAGSGSGTEFTLTISSLQSEDSAIYYCQQYNIWPPWTFGQGTKVEIK
B8: v6.7 (antibody, V domains shown)
VH: QVHLVQSGAEVKEPGSSVTVSCKASGGSFNNQAISWVRQAPGQGLEWMGGIFPISGTPTSAQRFQGRVTFTADESTTTVYMDLSSLRSDDTAVYYCARAGSEYFNRDLGWENYYFASWGQGTLVTVSS
VL: EIVMTQSPATLSLSSGERATLSCRASRSVSSNLAWYQQKPGQAPRLLIYDASTRATGFSARFAGSGSGTEFTLTISSLQSEDSAIYYCQQYNIWPPWTFGQGTKVEIK
B9: v7.7 (antibody, V domains shown)
VH: QVHLVQSGAEVKEPGSSVTVSCKASGGSFNNQAISWVRQAPGQGLEWMGGIFPISGTPTSAQRFQGRVTFTADESTTTVYMDLSSLRSDDTAVYYCARAGSDYFNRDLGWEQYYFASWGQGTLVTVSS
VL: EIVMTQSPATLSLSSGERATLSCRASRSVSSNLAWYQQKPGQAPRLLIYDASTRATGFSARFAGSGSGTEFTLTISSLQSEDSAIYYCQQYNIWPPWTFGQGTKVEIK
B10: v9.1 (antibody, V domains shown)
VH: QVHLVQSGAEVKEPGSSVTVSCKASGGSFNNQAISWVRQAPGQGLEWMGGIFPISGTATSAQRFQGRVTITADESTTTVYMDLSSLRSDDTAVYYCARAGSDYFNRDLGWENYYFASWGQGTLVTVSS
VL: EIVMTQSPATLSLSSGERATLSCRASRSVSSNLAWYQQKPGQAPRLLIYDASTRATGFSARFAGSGSGTEFTLTISSLQSEDSAIYYCQQYNNWPPWTFGQGTKVEIK
B11: v11.7 (antibody, V domains shown)
VH: QVHLVQSGAEVKEPGSSVTVSCKASGGSFNNQAISWVRQAPGQGLEWMGGIFPISGTATYAQRFQGRVTITADESTTTVYMDLSSLRSDDTAVYYCARAGSDYFNRDLGWENYYFASWGQGTLVTVSS
VL: EIVMTQSPATLSLSSGERATLSCRASRSVSSNLAWYQQKPGQAPRLLIYDASTRATGFSARFAGSGSGTEFTLTISSLQSEDSAIYYCQQYNIWPPWTFGQGTKVEIK
B12: v8.7 (antibody, V domains shown)
VH: QVHLVQSGAEVKEPGSSVTVSCKASGGTFNNQAISWVRQAPGQGLEWMGGIFPISGTPTSAQRFQGRVTFTADESTTTVYMDLSSLRSDDTAVYYCARAGSDYFNRDLGWENYYFASWGQGTLVTVSS
VL: EIVMTQSPATLSLSSGERATLSCRASRSVSSNLAWYQQKPGQAPRLLIYDASTRATGFSARFAGSGSGTEFTLTISSLQSEDSAIYYCQQYNIWPPWTFGQGTKVEIK
B13: v7.1 (antibody, V domains shown)
VH: QVHLVQSGAEVKEPGSSVTVSCKASGGSFNNQAISWVRQAPGQGLEWMGGIFPISGTPTSAQRFQGRVTFTADESTTTVYMDLSSLRSDDTAVYYCARAGSDYFNRDLGWEQYYFASWGQGTLVTVSS
VL: EIVMTQSPATLSLSSGERATLSCRASRSVSSNLAWYQQKPGQAPRLLIYDASTRATGFSARFAGSGSGTEFTLTISSLQSEDSAIYYCQQYNNWPPWTFGQGTKVEIK
B14: v4.1 (antibody, V domains shown)
VH: QVHLVQSGAEVKEPGSSVTVSCKASGGSFSNQAISWVRQAPGQGLEWMGGIFPISGTPTSAQRFQGRVTFTADESTTTVYMDLSSLRSDDTAVYYCARAGSDYFNRDLGWENYYFASWGQGTLVTVSS
VL: EIVMTQSPATLSLSSGERATLSCRASRSVSSNLAWYQQKPGQAPRLLIYDASTRATGFSARFAGSGSGTEFTLTISSLQSEDSAIYYCQQYNNWPPWTFGQGTKVEIK
B15: v5.1 (antibody, V domains shown)
VH: QVHLVQSGAEVKEPGSSVTVSCKASGGSFNKQAISWVRQAPGQGLEWMGGIFPISGTPTSAQRFQGRVTFTADESTTTVYMDLSSLRSDDTAVYYCARAGSDYFNRDLGWENYYFASWGQGTLVTVSS
VL: EIVMTQSPATLSLSSGERATLSCRASRSVSSNLAWYQQKPGQAPRLLIYDASTRATGFSARFAGSGSGTEFTLTISSLQSEDSAIYYCQQYNNWPPWTFGQGTKVEIK
B16: v12.1 (antibody, V domains shown)
VH: QVHLVQSGAEVKEPGSSVTVSCKASGGSFNNQAISWVRQAPGQGLEWMGGIFPISGTANYAQRFQGRVTITADESTTTVYMDLSSLRSDDTAVYYCARAGSDYFNRDLGWENYYFASWGQGTLVTVSS
VL: EIVMTQSPATLSLSSGERATLSCRASRSVSSNLAWYQQKPGQAPRLLIYDASTRATGFSARFAGSGSGTEFTLTISSLQSEDSAIYYCQQYNNWPPWTFGQGTKVEIK
B17: FNI9 (antibody, V domains shown)
VH: QVHLVQSGAEVKEPGSSVTVSCKASGGSFNNQAISWVRQAPGQGLEWMGGIFPISGTPTSAQRFQGRVTFTADESTTTVYMDLSSLRSDDTAVYYCARAGSDYFNRDLGWENYYFASWGQGTLVTVSS
VL: EIVMTQSPATLSLSSGERATLSCRASRSVSSNLAWYQQKPGQAPRLLIYDASTRATGFSARFAGSGSGTEFTLTISSLQSEDSAIYYCQQYNNWPPWTFGQGTKVEIK

T1 sequence (Q67214 whole entry): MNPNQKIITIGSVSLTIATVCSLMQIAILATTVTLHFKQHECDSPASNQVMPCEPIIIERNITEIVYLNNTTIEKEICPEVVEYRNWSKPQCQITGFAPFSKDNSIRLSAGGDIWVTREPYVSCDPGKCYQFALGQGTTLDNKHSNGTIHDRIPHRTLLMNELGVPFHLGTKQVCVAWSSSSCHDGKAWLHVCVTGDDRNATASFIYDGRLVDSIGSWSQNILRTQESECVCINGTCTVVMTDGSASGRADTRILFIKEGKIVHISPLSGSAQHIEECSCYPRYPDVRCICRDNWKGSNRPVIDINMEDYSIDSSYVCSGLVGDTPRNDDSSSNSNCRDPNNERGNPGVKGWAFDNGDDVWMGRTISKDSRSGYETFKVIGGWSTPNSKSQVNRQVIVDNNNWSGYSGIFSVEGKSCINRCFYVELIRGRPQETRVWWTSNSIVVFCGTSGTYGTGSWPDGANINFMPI

The first assay concerns the target T1, N2 neuraminidase from A/Leningrad/134/17/57 (Influenza A virus A/Leningrad/134/17/57, UniProt Q67214 1-469). The experiment in a line: flow cytometry, NA on cells. (A flow cytometer gives signals particle by particle.)
As to B1, the binding result is “binds”.

As for B2, the binding result is on record as “binds”.

As to B3, the binding result is “binds”.

B4: the binding result is given as “binds”.

Consider B5, for which the binding result was “binds”.

Regarding B6, the binding result is “binds”.

On to B7, for which the binding result was “binds”.

As to B8, the binding result was “binds”.

Consider B9, for which the binding result is given as “binds”.

For the molecule B10, the binding result is listed as “binds”.

Turning to B11, the binding result is reported as “binds”.

For the molecule B12, the binding result is given as “binds”.

With B13, the binding result is “binds”.

With B14, the binding result is “binds”.

B15: the binding result is reported as “binds”.

On to B16, for which the binding result is recorded as “binds”.

The target of a further assay is T1, N2 neuraminidase from …. The experiment in a line: flow cytometry, NA transiently expressed on Expi-CHO cells.
For B17, the “lowest concentration at which binding was observed (EC50 scale class)” value was 0.4 µg/mL.

The target of the next assay is IBV neuraminidase from B/Lee/10/1940 (Ancestral) (Influenza B virus B/Lee/10/1940, UniProt P03474 1-466). The assay is described as above.
IBV neuraminidase from B/Lee/10/1940 (Ancestral), sequence (P03474 whole entry): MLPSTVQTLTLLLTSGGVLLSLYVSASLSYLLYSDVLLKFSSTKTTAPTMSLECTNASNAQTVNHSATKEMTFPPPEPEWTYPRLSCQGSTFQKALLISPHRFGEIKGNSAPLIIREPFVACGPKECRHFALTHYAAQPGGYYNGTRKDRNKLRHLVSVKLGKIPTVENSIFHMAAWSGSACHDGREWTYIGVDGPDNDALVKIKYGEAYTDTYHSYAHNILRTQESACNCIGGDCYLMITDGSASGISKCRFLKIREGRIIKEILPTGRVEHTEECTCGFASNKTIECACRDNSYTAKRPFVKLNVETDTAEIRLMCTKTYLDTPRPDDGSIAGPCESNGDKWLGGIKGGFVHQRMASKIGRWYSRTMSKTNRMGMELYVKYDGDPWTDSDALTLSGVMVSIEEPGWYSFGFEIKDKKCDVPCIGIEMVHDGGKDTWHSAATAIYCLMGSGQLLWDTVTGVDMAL
Turning to B17, the “lowest concentration at which binding was observed (EC50 scale class)” value turned out to be 0.4 µg/mL.
